The target in assay [1] is RSV G中央保守域(CCD)生物素结合的肽 SYM-1706 (RSV). As to the kind of experiment: ELISA, biotinylated peptide on avidin plate, mAb titrated. For orientation: An ELISA detects its analyte on a solid surface through an enzyme-linked reagent.
Another assay addresses 长RSV G肽 (表15). Described as above.
Assay [2] addresses RSV株A/长(ATCC目录号VR-26)的G蛋白 (RSV A/长) (UniProt P20895). Nature of the assay: cell-based or functional assay.

B1: CB030.1 (antibody, V domains shown)
VH: QVQLVQSGAEMKRPGSSVKVSCKASGGTFSTFAINWVRQAPGQGFEWMGGVIPGFDSANYAQKFQGRLTMSADESTSTVYMELSSLRSDDTAVYYCAGNSGYCSGDSCAPNWGPGTLVTVSS
VL: DIVMTQSPLSLPVTPGEPASISCRSSQSLVHSNGYSYLDWYLQKPGQSPQLLIYLGSNRPSGVPDRFSGSGSGTDFTLKISRVEAEDVGVYFCMQNLQTPTFGGGTKVEIK
By IC50 is commonly meant the concentration at which inhibition is half-maximal. The low end stands for inhibition by little substance, the high end for a need for much substance. Turning to B1, the 50% inhibitory concentration (IC50) (in assay [1]; in the assay with 长RSV G肽 (表15)) was 0.02 µg/mL in each case.

B2: CB017.5L (antibody, V domains shown)
VH: QVQLVESGGGVVQPGRSLRLSCSASGFTFSVYAMHWVRQAPGQGLEWVAIIWYDGSNKYYADSVKGRFTISRDNSKETLYLQMNSLRVEDTAVYYCARDPIVGHTRDGLDVWGQGTTVTVSS
VL: SYELTQPPSVSVSPGQTARVTCSGDAMAEQYTYWYQQKPGQAPVLIIFKDTERPSGIPERFSGSSSGTTVTLTISGVQTEDEADYYCQSTDSSGTSWVFGGGTKLTVL
As for B2, the IC50 (in assay [1]; in the assay with 长RSV G肽 (表15)) was 0.02 µg/mL throughout.

B3: CR9505 (antibody, from another filing, V domains shown)
VH: EVQLQQSGPELVKPGTSVKISCKASGYSFTGFTMNWVKQSHGKNLEWFGLINPFNGNTGYNQKFKGKATLTVDKSSSTAFMELLSLTSEDSAVYYCARSGKSYDYEAWFTYWGQGTLVTVSA
VL: DIVMTQTTLSLPVSLGNQASISCRSSQTIVHTNGNTYLEWYLQKPGQSPKLLIYKVSNRFSGVPDRFSGSGSGTDFILNISRVEAEDLGVYYCFQGSHVPFTFGSGTKLEIKR
Turning to B3, the IC50 (空斑减少分析, 50%中和空斑形成) in assay [2] was found to be 0.018 µg/mL.

For the origin of these results see patent CN111303278A.
